This assay deals with human hemoglobin (human) (UniProt P69905). The experiment in a line: SPR. (SPR reads the build-up and loss of mass on a sensor chip optically.)

pKd: −log10 of the molar value.

UniProt P69905, sequence (P69905 whole entry, chain 1 of 2): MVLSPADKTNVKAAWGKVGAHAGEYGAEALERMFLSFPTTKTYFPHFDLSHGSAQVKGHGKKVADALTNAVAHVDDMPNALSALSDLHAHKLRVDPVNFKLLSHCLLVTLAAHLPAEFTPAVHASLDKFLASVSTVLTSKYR
UniProt P69905, sequence (P68871 whole entry, chain 2 of 2, further chain): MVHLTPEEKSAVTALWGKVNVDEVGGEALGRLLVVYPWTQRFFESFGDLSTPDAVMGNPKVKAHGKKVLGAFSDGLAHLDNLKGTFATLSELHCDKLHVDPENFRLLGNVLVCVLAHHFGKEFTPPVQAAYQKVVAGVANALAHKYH

As for “Spbhp-37 recombinant protein without the GST tag (natural protein)”, the pKd (usually the negative decadic logarithm of the Kd, by convention in mol/L) is 6.45.

The values are drawn from article PMC4854876.
